The test addresses H1 hemagglutinin (A/New Caledonia/20/1999(H1N1)), recombinant HA trimer used for electron microscopy (influenza A virus A/New Caledonia/20/1999 (H1N1)) (UniProt Q6WG00). The test is described as follows: cryo-EM structure.

For “H1 hemagglutinin (A/New Caledonia/20/1999(H1N1)), recombinant HA trimer used for electron microscopy (from UniProt Q6WG00 1-565) (natural protein)”, the stoichiometry N (in general, the number of molecules, sites or subunits per partner or assembly) was found to be 3.
